From publication PMC12115719

Target: Syngnathus scovelli chapparvovirus (SsChPV) VP, capsid protein (Syngnathus scovelli chapparvovirus)
Experiment: cryo-EM structure

For “Syngnathus scovelli chapparvovirus (SsChPV) VP, capsid protein (natural protein)”, the stoichiometry N was 60.
